In PMC2148137 (The Journal of Cell Biology, 1998):

Target: T1, GST–Kic1p full-length fusion (S. cerevisiae, UniProt P38692 1-1080)
T1 sequence (looked up): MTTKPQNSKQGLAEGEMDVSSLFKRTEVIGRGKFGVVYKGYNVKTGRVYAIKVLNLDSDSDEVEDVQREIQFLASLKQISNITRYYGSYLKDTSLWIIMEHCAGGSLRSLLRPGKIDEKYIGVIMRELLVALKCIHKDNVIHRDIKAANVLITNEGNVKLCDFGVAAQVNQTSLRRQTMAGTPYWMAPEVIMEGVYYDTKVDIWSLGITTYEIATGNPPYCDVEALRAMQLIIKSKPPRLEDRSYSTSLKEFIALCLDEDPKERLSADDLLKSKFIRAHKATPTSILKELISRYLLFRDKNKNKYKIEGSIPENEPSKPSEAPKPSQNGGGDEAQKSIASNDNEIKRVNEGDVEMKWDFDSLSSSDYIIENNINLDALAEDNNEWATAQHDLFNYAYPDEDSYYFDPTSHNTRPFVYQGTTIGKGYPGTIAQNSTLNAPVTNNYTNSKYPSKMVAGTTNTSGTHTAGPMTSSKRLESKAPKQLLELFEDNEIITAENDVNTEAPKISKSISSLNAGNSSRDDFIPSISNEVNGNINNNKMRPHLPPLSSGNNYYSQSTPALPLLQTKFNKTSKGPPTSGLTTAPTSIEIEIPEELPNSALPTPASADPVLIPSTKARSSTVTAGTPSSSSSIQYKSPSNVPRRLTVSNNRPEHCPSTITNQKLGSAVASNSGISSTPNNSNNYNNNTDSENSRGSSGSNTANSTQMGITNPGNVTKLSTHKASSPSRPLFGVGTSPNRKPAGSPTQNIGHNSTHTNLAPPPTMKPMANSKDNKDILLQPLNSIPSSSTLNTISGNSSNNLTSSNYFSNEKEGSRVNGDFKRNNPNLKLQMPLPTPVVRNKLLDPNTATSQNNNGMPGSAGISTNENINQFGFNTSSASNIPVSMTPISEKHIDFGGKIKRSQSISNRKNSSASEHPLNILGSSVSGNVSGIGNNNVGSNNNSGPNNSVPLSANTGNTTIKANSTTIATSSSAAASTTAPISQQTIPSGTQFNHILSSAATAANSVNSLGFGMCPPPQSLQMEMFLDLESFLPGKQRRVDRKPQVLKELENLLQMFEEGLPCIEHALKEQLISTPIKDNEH
Experiment: far-Western, overlay or dot blot

B1: radiolabeled Cdc31p purified from bacteria (natural protein, S. cerevisiae, UniProt P06704 1-161, looked up)
chain: MSKNRSSLQSGPLNSELLEEQKQEIYEAFSLFDMNNDGFLDYHELKVAMKALGFELPKREILDLIDEYDSEGRHLMKYDDFYIVMGEKILKRDPLDEIKRAFQLFDDDHTGKISIKNLRRVAKELGETLTDEELRAMIEEFDLDGDGEINENEFIAICTDS
modifications: radiolabeled
B1: binds.
